Assay results published in publication PMC7244493, “Osteogenesis imperfecta mutations in plastin 3 lead to impaired calcium regulation of actin bundling” (Bone Research, 2020).

Experiments:
[1] = molecular target: T1, F-actin (chicken skeletal muscle actin, polymerized) (chicken, UniProt P68139 1-377); assay: cell-based or functional assay
[2] = molecular target: T1, F-actin (chicken skeletal muscle actin, …); assay: co-sedimentation; high-speed co-sedimentation, 300 000 g, 25 °C, 30 min; plastin 5 µmol·L^-1, F-actin varied 1-50 µmol·L^-1; actin polymerized in 2 mmol·L^-1 MgCl2, 30 mmol·L^-1 KCl, 10 mmol·L^-1 HEPES pH 7.0; incubated overnight at 4 °C then 1 h at 25 °C; SDS-PAGE densitometry, fit to a binding isotherm; details: both partners purified

B1: plastin 3 (PLS3) E249_A250insIMGHSHSGSCLL (natural protein)
chain: MDEMATTQISKDELDELKEAFAKVDLNSNGFICDYELHELFKEANMPLPGYKVREIIQKLMLDGDRNKDGKISFDEFVYIFQEVKSSDIAKTFRKAINRKEGICALGGTSELSSEGTQHSYSEEEKYAFVNWINKALENDPDCRHVIPMNPNTDDLFKAVGDGIVLCKMINLSVPDTIDERAINKKKLTPFIIQENLNLALNSASAIGCHVVNIGAEDLRAGKPHLVLGLLWQIIKIGLFADIELSRNEIMGHSHSGSCLLALAALLRDGETLEELMKLSPEELLLRWANFHLENSGWQKINNFSADIKDSKAYFHLLNQIAPKGQKEGEPRIDINMSGFNETDDLKRAESMLQQADKLGCRQFVTPADVVSGNPKLNLAFVANLFNKYPALTKPENQDIDWTLLEGETREERTFRNWMNSLGVNPHVNHLYADLQDALVILQLYERIKVPVDWSKVNKPPYPKLGANMKKLENCNYAVELGKHPAKFSLVGIGGQDLNDGNQTLTLALVWQLMRRYTLNVLEDLGDGQKANDDIIVNWVNRTLSEAGKSTSIQSFKDKTISSSLAVVDLIDAIQPGCINYDLVKSGNLTEDDKHNNAKYAVSMARRIGARVYALPEDLVEVKPKMVMTVFACLMGRGMKRV
notes: Patient mutation; also called E249_A250insI-L; Ca2+-insensitive mutant; source: E. coli BL21-CodonPlus(DE3), purified (TALON cobalt resin)
B1 was tested. Which “F-actin bundling, low-speed (17 000 g) co-sedimentation, [PLS3]50%, Ca^2+” value (shortened to “F-actin bundling, low-speed … [PLS3]50%, Ca^2+”) [1] did it give?
Its value is 0.03 µmol/L.

What about the “F-actin bundling, low-speed (17 000 g) co-sedimentation, [PLS3]50%, EGTA” value (from here on “F-actin bundling, low-speed … [PLS3]50%, EGTA”) [1] of the same binder?
The value was 0.1 µmol/L.

What about the Kd [2] of the same binder?
The Kd was 2.56 µM.

B2: plastin 3 (PLS3) A253_L254insN (natural protein)
chain: MDEMATTQISKDELDELKEAFAKVDLNSNGFICDYELHELFKEANMPLPGYKVREIIQKLMLDGDRNKDGKISFDEFVYIFQEVKSSDIAKTFRKAINRKEGICALGGTSELSSEGTQHSYSEEEKYAFVNWINKALENDPDCRHVIPMNPNTDDLFKAVGDGIVLCKMINLSVPDTIDERAINKKKLTPFIIQENLNLALNSASAIGCHVVNIGAEDLRAGKPHLVLGLLWQIIKIGLFADIELSRNEALAANLLRDGETLEELMKLSPEELLLRWANFHLENSGWQKINNFSADIKDSKAYFHLLNQIAPKGQKEGEPRIDINMSGFNETDDLKRAESMLQQADKLGCRQFVTPADVVSGNPKLNLAFVANLFNKYPALTKPENQDIDWTLLEGETREERTFRNWMNSLGVNPHVNHLYADLQDALVILQLYERIKVPVDWSKVNKPPYPKLGANMKKLENCNYAVELGKHPAKFSLVGIGGQDLNDGNQTLTLALVWQLMRRYTLNVLEDLGDGQKANDDIIVNWVNRTLSEAGKSTSIQSFKDKTISSSLAVVDLIDAIQPGCINYDLVKSGNLTEDDKHNNAKYAVSMARRIGARVYALPEDLVEVKPKMVMTVFACLMGRGMKRV
notes: plastin 3 (PLS3), human, osteogenesis imperfecta-linked single-residue insertion A253_L254insN in the CH1-CH2 connecting loop of ABD1; Patient mutation; also called Ca2+-hypersensitive mutant; source: E. coli BL21-CodonPlus(DE3), purified (TALON cobalt resin)
For B2, which “F-actin bundling, low-speed … [PLS3]50%, Ca^2+” value [1] is on record?
Its value is 2.09 µmol/L.

And the “F-actin bundling, low-speed … [PLS3]50%, EGTA” value [1]?
Its value is 0.53 µmol/L.

And the Kd [2]?
Its Kd is 3.77 µM.

B3: plastin 3 (PLS3), wild type (natural protein)
chain: MDEMATTQISKDELDELKEAFAKVDLNSNGFICDYELHELFKEANMPLPGYKVREIIQKLMLDGDRNKDGKISFDEFVYIFQEVKSSDIAKTFRKAINRKEGICALGGTSELSSEGTQHSYSEEEKYAFVNWINKALENDPDCRHVIPMNPNTDDLFKAVGDGIVLCKMINLSVPDTIDERAINKKKLTPFIIQENLNLALNSASAIGCHVVNIGAEDLRAGKPHLVLGLLWQIIKIGLFADIELSRNEALAALLRDGETLEELMKLSPEELLLRWANFHLENSGWQKINNFSADIKDSKAYFHLLNQIAPKGQKEGEPRIDINMSGFNETDDLKRAESMLQQADKLGCRQFVTPADVVSGNPKLNLAFVANLFNKYPALTKPENQDIDWTLLEGETREERTFRNWMNSLGVNPHVNHLYADLQDALVILQLYERIKVPVDWSKVNKPPYPKLGANMKKLENCNYAVELGKHPAKFSLVGIGGQDLNDGNQTLTLALVWQLMRRYTLNVLEDLGDGQKANDDIIVNWVNRTLSEAGKSTSIQSFKDKTISSSLAVVDLIDAIQPGCINYDLVKSGNLTEDDKHNNAKYAVSMARRIGARVYALPEDLVEVKPKMVMTVFACLMGRGMKRV
notes: plastin 3 (PLS3, T-plastin), human; recombinant wild type, parent of the OI mutants; Modified pColdI vector with a TEV protease site after the 6xHis tag; also called T-plastin; WT PLS3; source: E. coli BL21-CodonPlus(DE3), purified (TALON cobalt resin)
Which “F-actin bundling, low-speed … [PLS3]50%, Ca^2+” value [1] does the source give for B3 here?
The value was 2.97 µmol/L.

And the “F-actin bundling, low-speed … [PLS3]50%, EGTA” value [1]?
The value was 0.49 µmol/L.

And the Kd [2]?
Its Kd is 7.41 µM.

B4: plastin 3 (PLS3) A368D (natural protein)
chain: MDEMATTQISKDELDELKEAFAKVDLNSNGFICDYELHELFKEANMPLPGYKVREIIQKLMLDGDRNKDGKISFDEFVYIFQEVKSSDIAKTFRKAINRKEGICALGGTSELSSEGTQHSYSEEEKYAFVNWINKALENDPDCRHVIPMNPNTDDLFKAVGDGIVLCKMINLSVPDTIDERAINKKKLTPFIIQENLNLALNSASAIGCHVVNIGAEDLRAGKPHLVLGLLWQIIKIGLFADIELSRNEALAALLRDGETLEELMKLSPEELLLRWANFHLENSGWQKINNFSADIKDSKAYFHLLNQIAPKGQKEGEPRIDINMSGFNETDDLKRAESMLQQADKLGCRQFVTPADVVSGNPKLNLDFVANLFNKYPALTKPENQDIDWTLLEGETREERTFRNWMNSLGVNPHVNHLYADLQDALVILQLYERIKVPVDWSKVNKPPYPKLGANMKKLENCNYAVELGKHPAKFSLVGIGGQDLNDGNQTLTLALVWQLMRRYTLNVLEDLGDGQKANDDIIVNWVNRTLSEAGKSTSIQSFKDKTISSSLAVVDLIDAIQPGCINYDLVKSGNLTEDDKHNNAKYAVSMARRIGARVYALPEDLVEVKPKMVMTVFACLMGRGMKRV
notes: plastin 3 (PLS3), human, osteogenesis imperfecta-linked missense mutation A368D in CH2 of ABD1; Patient mutation; also called Ca2+-insensitive mutant; Ca2+-hyposensitive mutant; source: E. coli BL21-CodonPlus(DE3), purified (TALON cobalt resin)
B4 was tested. Which “F-actin bundling, low-speed … [PLS3]50%, Ca^2+” value [1] did it give?
Its value is 0.59 µmol/L.

What about the “F-actin bundling, low-speed … [PLS3]50%, EGTA” value [1] of the same binder?
The value was 0.47 µmol/L.

And the Kd [2]?
The Kd was 4.22 µM.

B5: plastin 3 (PLS3) L478P (natural protein)
chain: MDEMATTQISKDELDELKEAFAKVDLNSNGFICDYELHELFKEANMPLPGYKVREIIQKLMLDGDRNKDGKISFDEFVYIFQEVKSSDIAKTFRKAINRKEGICALGGTSELSSEGTQHSYSEEEKYAFVNWINKALENDPDCRHVIPMNPNTDDLFKAVGDGIVLCKMINLSVPDTIDERAINKKKLTPFIIQENLNLALNSASAIGCHVVNIGAEDLRAGKPHLVLGLLWQIIKIGLFADIELSRNEALAALLRDGETLEELMKLSPEELLLRWANFHLENSGWQKINNFSADIKDSKAYFHLLNQIAPKGQKEGEPRIDINMSGFNETDDLKRAESMLQQADKLGCRQFVTPADVVSGNPKLNLAFVANLFNKYPALTKPENQDIDWTLLEGETREERTFRNWMNSLGVNPHVNHLYADLQDALVILQLYERIKVPVDWSKVNKPPYPKLGANMKKLENCNYAVELGKHPAKFSPVGIGGQDLNDGNQTLTLALVWQLMRRYTLNVLEDLGDGQKANDDIIVNWVNRTLSEAGKSTSIQSFKDKTISSSLAVVDLIDAIQPGCINYDLVKSGNLTEDDKHNNAKYAVSMARRIGARVYALPEDLVEVKPKMVMTVFACLMGRGMKRV
notes: plastin 3 (PLS3), human, osteogenesis imperfecta-linked missense mutation L478P in CH3 of ABD2; Patient mutation; also called bundling-deficient mutant; source: E. coli BL21-CodonPlus(DE3), purified (TALON cobalt resin)
For B5, which Kd [2] is on record?
The Kd was 2.16 µM.

B6: plastin 3 (PLS3) N446S (natural protein)
chain: MDEMATTQISKDELDELKEAFAKVDLNSNGFICDYELHELFKEANMPLPGYKVREIIQKLMLDGDRNKDGKISFDEFVYIFQEVKSSDIAKTFRKAINRKEGICALGGTSELSSEGTQHSYSEEEKYAFVNWINKALENDPDCRHVIPMNPNTDDLFKAVGDGIVLCKMINLSVPDTIDERAINKKKLTPFIIQENLNLALNSASAIGCHVVNIGAEDLRAGKPHLVLGLLWQIIKIGLFADIELSRNEALAALLRDGETLEELMKLSPEELLLRWANFHLENSGWQKINNFSADIKDSKAYFHLLNQIAPKGQKEGEPRIDINMSGFNETDDLKRAESMLQQADKLGCRQFVTPADVVSGNPKLNLAFVANLFNKYPALTKPENQDIDWTLLEGETREERTFRNWMNSLGVNPHVNHLYADLQDALVILQLYERIKVPVDWSKVSKPPYPKLGANMKKLENCNYAVELGKHPAKFSLVGIGGQDLNDGNQTLTLALVWQLMRRYTLNVLEDLGDGQKANDDIIVNWVNRTLSEAGKSTSIQSFKDKTISSSLAVVDLIDAIQPGCINYDLVKSGNLTEDDKHNNAKYAVSMARRIGARVYALPEDLVEVKPKMVMTVFACLMGRGMKRV
notes: plastin 3 (PLS3), human, osteogenesis imperfecta-linked missense mutation N446S in a proline-rich loop of CH3; Patient mutation; also called Ca2+-hypersensitive mutant; source: E. coli BL21-CodonPlus(DE3), purified (TALON cobalt resin)
How did the “F-actin bundling, low-speed … [PLS3]50%, Ca^2+” value [1] turn out when B6 was run?
The value was 6.36 µmol/L.

And the “F-actin bundling, low-speed … [PLS3]50%, EGTA” value [1]?
Its value is 0.58 µmol/L.

What about the Kd [2] of the same binder?
Its Kd is 4.79 µM.
